Test results published in paper PMC10864350, “Phosphorylation-dependent deubiquitinase OTUD3 regulates YY1 stability and promotes colorectal cancer progression” (Cell Death & Disease, 2024).
One block for each molecule: values may come before it.

Legend:
YY1 = YY1 (UniProt P25490); assay: co-IP; details: reference: HA-OTUD3 wild type; sites S326
[1] = target: T1, Myc-tagged PLK1 (wild-type) (UniProt P53350 1-603); assay: pull-down; GST or GST-OTUD3 (E. coli) incubated overnight at 4 °C with purified Flag-YY1 or Myc-PLK1 from HEK-293T; Glutathione-Sepharose 4B beads; immunoblot with anti-Flag or anti-Myc; details: both partners purified
T1 construct: Polo-like kinase 1 (PLK1), wild type, cloned into pCDNA3.1-CMV-Myc-C; The vector name pCDNA3.1-CMV-Myc-C may mean a C-terminal tag; also called Myc-PLK1; source: SW480, transfected, in lysate
T1 sequence (P53350 whole entry): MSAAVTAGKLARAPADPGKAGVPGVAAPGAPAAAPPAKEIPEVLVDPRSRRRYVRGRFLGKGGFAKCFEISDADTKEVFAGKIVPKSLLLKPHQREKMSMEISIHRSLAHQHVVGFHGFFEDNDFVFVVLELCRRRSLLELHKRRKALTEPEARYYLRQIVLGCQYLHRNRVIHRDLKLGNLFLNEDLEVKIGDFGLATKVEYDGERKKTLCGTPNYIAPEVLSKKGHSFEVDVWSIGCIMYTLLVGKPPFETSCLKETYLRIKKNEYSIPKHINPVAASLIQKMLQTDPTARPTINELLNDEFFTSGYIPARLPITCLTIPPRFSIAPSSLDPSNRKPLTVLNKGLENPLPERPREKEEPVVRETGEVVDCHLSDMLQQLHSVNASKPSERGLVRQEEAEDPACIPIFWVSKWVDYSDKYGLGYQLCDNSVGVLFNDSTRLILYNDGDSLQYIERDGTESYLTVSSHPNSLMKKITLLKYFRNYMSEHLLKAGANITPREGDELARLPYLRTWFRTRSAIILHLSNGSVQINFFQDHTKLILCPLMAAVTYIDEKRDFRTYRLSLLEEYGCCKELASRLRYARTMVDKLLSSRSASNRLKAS

[2] = target: T2, Flag-tagged YY1 (Yin Yang 1), full length, wild type (UniProt P25490 1-414); assay: as above; details: both partners purified
T2 construct: Yin Yang 1 (YY1), zinc finger transcription factor, full-length wild type cloned into pCDNA3.1-CMV-Flag-C; The vector name pCDNA3.1-CMV-Flag-C may mean a C-terminal tag; also called Flag-YY1; YY1-WT; source: SW480, transfected, in lysate
T2 sequence (P25490 whole entry): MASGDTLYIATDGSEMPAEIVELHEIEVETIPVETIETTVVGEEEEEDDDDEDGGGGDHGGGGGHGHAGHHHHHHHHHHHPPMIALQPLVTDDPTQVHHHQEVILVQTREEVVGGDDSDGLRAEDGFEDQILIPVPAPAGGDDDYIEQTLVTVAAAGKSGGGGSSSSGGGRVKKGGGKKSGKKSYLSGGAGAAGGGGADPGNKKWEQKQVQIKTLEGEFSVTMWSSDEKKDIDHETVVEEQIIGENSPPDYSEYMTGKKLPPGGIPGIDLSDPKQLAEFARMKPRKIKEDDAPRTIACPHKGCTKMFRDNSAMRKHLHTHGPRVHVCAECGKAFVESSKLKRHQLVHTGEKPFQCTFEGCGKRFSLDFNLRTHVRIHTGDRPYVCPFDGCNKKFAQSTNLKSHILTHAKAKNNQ

binding against the reference (YY1): weaker
Molecule: OTUD3 (from UniProt Q5T2D3) HA-OTUD3 S326A

binding result [1]: binds | binding result [2]: binds
B1: GST-OTUD3 recombinant protein (enzyme, human, UniProt Q5T2D3 1-398, looked up)
chain: MSRKQAAKSRPGSGSRKAEAERKRDERAARRALAKERRNRPESGGGGGCEEEFVSFANQLQALGLKLREVPGDGNCLFRALGDQLEGHSRNHLKHRQETVDYMIKQREDFEPFVEDDIPFEKHVASLAKPGTFAGNDAIVAFARNHQLNVVIHQLNAPLWQIRGTEKSSVRELHIAYRYGEHYDSVRRINDNSEAPAHLQTDFQMLHQDESNKREKIKTKGMDSEDDLRDEVEDAVQKVCNATGCSDFNLIVQNLEAENYNIESAIIAVLRMNQGKRNNAEENLEPSGRVLKQCGPLWEEGGSGARIFGNQGLNEGRTENNKAQASPSEENKANKNQLAKVTNKQRREQQWMEKKKRQEERHRHKALESRGSHRDNNRSEAEANTQVTLVKTFAALNI
notes: OTUD3 cloned into the pGEX-6P-1 vector; also called GST-tagged OTUD3; GST-labeled OTUD3; source: Escherichia coli BL21 (DE3), purified (Glutathione Sepharose 4B beads)
